Paper PMC12956587

Biological target: WIN332 SOSIP Env trimer (HIV-1 strain BG505)
Assay: SEC

WIN332 SOSIP Env trimer (complex) was tested, and the stoichiometry N was 3.
